Assay results taken from US6207389A, “Methods of controlling T lymphocyte mediated immune responses” (HRC Research and Development Limited Partnership, priority 1995, dated 2001).

What was measured:
C57/B6 and SJL mice = assay: Serum antibodies to BSA and p69 by fluoroimmunoassay, control mice (Example 11); assay type: in vivo, mouse; conditions: 50 μg sc in complete Freund's adjuvant
Protocol: (§1) Male non-obese diabetic mice (NOD, 6-7 weeks old) were immunized with 50 μg BSA, ABBOS-short peptide ([…]), recombinant truncated p69 or p69 T cell epitope peptide `Tep69` ([…]) (10). Recombinant truncated p69 was prepared by expression of a portion of the cDNA of IS4. The cDNA was cut a few nucleotides downstream of the 3' terminal of exon 3 and was subcloned into the PET™ expression system according to the manufacturer's recommendations (Novagen Inc., Madison, Wis.).
(§2) Antigens were injected subcutaneously in complete Freunds' adjuvant, and local lymph nodes and blood samples were collected 10 days later. […] Six hours before harvesting, 1 μCi ^3 H-thymidine (6.7 Ci/mmol) was added to the wells, and isotope incorporation was analysed by liquid scintillation counting. Values are expressed as mean counts per minute ± standard deviation (mean cpm ± SD).
(§3) Serum antibodies to BSA and p69 were measured by particle concentration fluoroimmunoassay, as described (11). […] Bound fluorescence was read by an automated ScreenMachine™ instrument (IDEXX, Portland, Me.). Data are expressed in kilofluorescence units relative to a standard mouse serum analyzed in parallel within each assay plate.
(§4) Young male NOD mice (H2^G7, IE^-/-) received a single immunization with truncated p69 (as encoded by IS4 cDNA) in complete adjuvant, and antibody and T cell proliferative responses were measured 8-10 days later. […]

NOD mice = assay: Serum antibodies to BSA and p69 by fluoroimmunoassay, NOD mice (Example 11); assay type: in vivo, mouse; conditions: 50 μg sc in complete Freund's adjuvant
Protocol: as §1, §2, §3, §4

[1] = system: C57/B6 and SJL mice lymph node cells; assay: Immunization and T cell proliferation assay, non-diabetes prone control mice (Example 11); assay type: in vivo, mouse; conditions: 50 μg sc in complete Freund's adjuvant
Protocol: (§5) Recombinant truncated p69 was prepared by expression of a portion of the cDNA of IS4. The cDNA was cut a few nucleotides downstream of the 3' terminal of exon 3 and was subcloned into the PET™ expression system according to the manufacturer's recommendations (Novagen Inc., Madison, Wis.). The truncated protein contains 100 amino acids and is essentially identical with the murine molecule.
(§6) Antigens were injected subcutaneously in complete Freunds' adjuvant, and local lymph nodes and blood samples were collected 10 days later. Triplicate cultures of 2×10^5 lymph node cells were incubated for 5 days in serum-free HGM-af Medium™ (Promo Cell, Heidelberg, Germany) in the presence of 1 μg of protein or synthetic peptide as recall antigen. Six hours before harvesting, 1 μCi ^3 H-thymidine (6.7 Ci/mmol) was added to the wells, and isotope incorporation was analysed by liquid scintillation counting. Values are expressed as mean counts per minute ± standard deviation (mean cpm ± SD).
(§7) Young male NOD mice (H2^G7, IE^-/-) received a single immunization with truncated p69 (as encoded by IS4 cDNA) in complete adjuvant, and antibody and T cell proliferative responses were measured 8-10 days later. MHC disparate C57/B6 (H2^b, IE^-/-) and SJL (H2^s, IE^-/-) mice served as non-diabetes prone controls (FIG. 31).

[2] = system: NOD mice lymph node cells; assay: Immunization and T cell proliferation assay, NOD mice (Example 11); assay type: in vivo, mouse; conditions: 50 μg sc in complete Freund's adjuvant, recall with 1 μg antigen in vitro
Protocol: as §5, §6, §7

[3] = system: PBMC from healthy subjects; assay: T cell proliferation assay with BSA and rec-p69, healthy subjects (Example 3); assay type: cell-based, human; conditions: with or without IL2
Protocol: (§8) Cultures containing 5×10^4 cells were incubated for 7 days at 37° C. in serum-free HL-1 medium (Ventrex, Portland, Me.) containing 1 μg antigen per well for test samples.
(§9) Control cultures were treated with 1 μg human, chick or horse albumin or an equivalent volume of control recombinant antigen prepared from lysates of E. coli carrying wild type plasmid.
(§10) After an overnight pulse of 1 μci ^3 H thymidine, cultures were harvested and submitted to liquid scintillation counting. Proliferation was expressed as cpm ^3 HTdR×10^-3.
(§11) A parallel set of cell cultures was incubated with the same test antigens or control agents in the presence of 10 U human IL2.

[4] = system: PBMC from children with recent onset diabetes; assay: T cell proliferation assay with BSA and rec-p69, patients (Example 3); assay type: cell-based, human; conditions: 1 μg antigen
Protocol: as §8, §9, §10, §11

[5] = listed as recombinant truncated p69

B1: truncated p69: 100 amino acid truncated p69 encoded by clone IS4 cDNA, contains Tep69 region, SEQ ID No. 41 (protein)
chain: MSGHKCSYPWDLQDRYAQDKSVVNKMQQKYWETKQAFIKATGKKEDEHVVASDADLDAKLELFHSIQRTCLDLSKAIVLYQKRICSF
In the case of B1, the “antibody response after immunisation (anti-p69 or anti-BSA)” value (shortened to “antibody response after immunisation”) (C57/B6 and SJL mice) is reported as “not in C57/B6 or SJL strains”, the “antibody response after immunisation” value (NOD mice) is reported as “Vigorous p69-specific antibody and T cell responses” and the “antibody response after immunisation” value (NOD mice; [5]) is reported as “vigorous B- and T cell responses”. For the same molecule, the “T cell proliferative response after immunisation” value (“T cell proliferative response” below) [1] was “not in C57/B6 or SJL strains”, the “T cell proliferative response” value [1, 5] was “essentially no responses” and the “T cell proliferative response” value [2] was “Vigorous p69-specific antibody and T cell responses”. For the same molecule, the “T cell proliferative response” value [2, 5] was “vigorous B- and T cell responses”.

B2: ovalbumin (protein, UniProt P01012 2-386, looked up)
Ovalbumin: GSIGAASMEFCFDVFKELKVHHANENIFYCPIAIMSALAMVYLGAKDSTRTQINKVVRFDKLPGFGDSIEAQCGTSVNVHSSLRDILNQITKPNDVYSFSLASRLYAEERYPILPEYLQCVKELYRGGLEPINFQTAADQARELINSWVESQTNGIIRNVLQPSSVDSQTAMVLVNAIVFKGLWEKAFKDEDTQAMPFRVTEQESKPVQMMYQIGLFRVASMASEKMKILELPFASGTMSMLVLLPDEVSGLEQLESIINFEKLTEWTSSNVMEERKIKVYLPRMKMEEKYNLTSVLMAMGITDVFSSSANLSGISSAESLKISQAVHAAHAEINEAGREVVGSAEAGVDAASVSEEFRADHPFLFCIKHIATNAVLFFGRCVSP
notes: bona fide non-self control antigen
B2 was tested, and the “antibody response after immunisation” value (C57/B6 and SJL mice) was “comparable responses” and the “T cell proliferative response” value [1] was “comparable responses”.

B3: rec-p69: recombinant human islet cell antigen p69 expressed in E. coli, SEQ ID No. 2 (protein)
chain: MSGHKCSYPWDLQDRYAQDKSVVNKMQQKYWETKQAFIKATGKKEDEHVVASDADLDAKLELFHSIQRTCLDLSKAIVLYQKGICFLSQEENELGKFLRSQGFQDKTRAGKMMQATGKALCFSSQQRLALRNPLCRFHQEVETFRHRAISDTWLTVNRMEQCRTEYRGALLWMKDVSQELDPDLYKQMEKFRKVQTQVRLAKKNFDKLKMDVCQKVDLLGASRCNLLSHMLATYQTTLLHFWEKTSHTMAAIHESFKGYQPYEFTTLKSLQDPMKKLVEKEEKKKINQQESTDAAVQEPSQLISLEEENQRKESSSFKTEDGKSILSALDKGSTHTACSGPIDELLDMKSEEGACLGPVAGTPEPEGADKDDLLLLSEIFNASSLEEGEFSKEWAAVFGDGQVKEPVPTMALGEPDPKAQTGSGFLPSQLLDQNMKDLQASLQEPAKAASDLTAWFSLFADLDPLSNPDAVGKTDKEHELLNA
In the case of B3, the “proliferative response of samples from healthy subjects” value [3] is reported as “no significant proliferative response”, the “proliferative response of patient samples” value ([4]; absence of IL2) is reported as “at best a small proliferative response” and the “proliferative response of patient samples” value ([4]; absence of IL2, listed as recombinant human p69 protein) is reported as “little or no proliferative response”. The “proliferative response of patient samples” value ([4]; presence of 10 U IL2, listed as recombinant human p69 protein) was “full proliferative response”.
